Values belong to the sequence of their own block, whether it stands above or below them.
Legend:
[1] = molecular target: T1, bovine pancreatic trypsin (Bos taurus, UniProt P00760); assay: Isothermal titration calorimetry (ITC) of binding to bovine pancreatic trypsin; details: for Stoichiometry / Ka (association constant) / ΔH / ΔS: ITC; for Binding to trypsin by ITC (in words): all experimental conditions, FIGS. 6 and 7
T1 sequence (P00760 24-246): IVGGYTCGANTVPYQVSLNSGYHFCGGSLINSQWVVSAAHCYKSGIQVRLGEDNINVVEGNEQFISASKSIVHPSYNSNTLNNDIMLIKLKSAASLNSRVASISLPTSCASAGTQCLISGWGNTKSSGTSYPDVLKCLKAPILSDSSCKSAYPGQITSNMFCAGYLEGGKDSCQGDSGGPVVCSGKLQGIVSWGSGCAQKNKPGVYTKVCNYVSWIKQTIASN
Protocol: Isothermal titration calorimetry (ITC) was performed with a VP-ITC instrument from MicroCal, inc. Titrations were carried out by injecting 5 μL of an inhibitor solution (at concentration ranges from 0.5 mM to 2.0 mM) into the 1.4 mL stirred reaction cell. APP and APP derivatives ranged in concentration from 50 to 80 μM in the cell. […] Titrations were conducted between 20° C. and 40° C. Typical experimental conditions for the titrations were a 10 second injection period followed by a 240 second delay between injections for a total of 40 injections. Blank titrations of inhibitor into buffer were performed in order to correct for heats of dilution and mixing.
The independent set of multiple binding sites is the most common model for binding experiment evaluations. The analytical solution for the total heat is determined by (Freire et al., 1990): [formula]
where Q is the total heat, V is the cell volume, ΔH is the enthalpy, M is the macromolecule concentration (the binding partner in the cell), n is the binding stoichiometry, L is the ligand concentration (the binding partner in the syringe), and K is the association constant. Data were fit to this model using Origin version 5 (MicroCal, Inc.).
The association constant is related to the van't Hoff enthalpy according to the following relationship: [formula]
The free energy of binding is related to the binding enthalpy by:
or with the incorporation of heat capacity data according to the Gibbs-Helmholtz equation: [formula]
where ΔG is the Gibbs free energy of binding, T0 is the reference temperature, and ΔCp is the heat capacity. The value of ΔCp is calculated from determining the calorimetric enthalpy at two different temperatures: [formula]
By measuring the apparent enthalpy of binding in two different buffers of known enthalpy of ionization, it is possible to measure the net number of protons transferred during the binding events:
where ΔHcor is the actual heat of binding at the pH measured. The sign indicates the direction of proton transfer.

[2] = molecular target: T1, bovine pancreatic trypsin; assay: Surface plasmon resonance (BiaCore-X), trypsin flowed over immobilized peptide; assay type: binding; details: peptide coupled to CM-5 chip by thiol, trypsin 1 to 100 nM in PBS, FIG. 12
Protocol: The BiaCore, Inc. BiaCore-X surface plasmon resonance (SPR) device was utilized to measure the interaction between bovine pancreatic trypsin and SAP-1 or SAP-2. For these experiments a carboxymethyl dextran sensor chip (CM-5) was activated with 50 mM N-hydroxysuccinimide, 0.2 M N-ethyl-N′-(dimethylaminopropyl)-carbodiimide at a flow rate of 10 μL per minute for ten minutes. The thiol coupling agent PDEA (2-(2-pyridinyldithio)ethaneamine hydrochloride) at a concentration of 80 mM was passed over the activated surface at a flow rate of 10 μL per minute for five minutes. SAP-1 or SAP-2 at a concentration of 50 ng/μL was coupled to the activated surface at a flow rate of 10 μL per minute for ten minutes. The final surface was inactivated by flowing 50 mM 1-cysteine, 1 M NaCl at a rate of 10 μL per minute for five minutes over the sensor surface. Buffer was switched to phosphate buffered saline (PBS) and bovine pancreatic trypsin was flowed over the sensor surface at a rate of 20 μL per minute, and at concentrations that ranged from 1 to 100 nM.
For this reaction of the type, A+B⇄AB, where A is the free flowing ligand and B is the immobilized ligand, the change in the SPR signal (R) is proportional to formation (for the association phase) or to the dissociation (for the dissociation phase) of the complex AB.
for the association phase. Rmax is the measured response if all of the binding sites in the bound species were occupied, c is the ligand concentration, and Rb is the shift in the baseline signal upon ligand injection. The dissociation phase is evaluated by:
where R0 is the SPR signal at the start of dissociation. A FFT routine separately smoothed the association and dissociation portions of the binding isotherm. Final kinetic analysis (O'Shannessy et al., 1993) was performed using Origin from Microcal, Inc.

[3] = Chemical denaturation: unfolding in urea by intrinsic tryptophan fluorescence; assay type: physicochemical; details: for m1/2 value of unfolding: 20 μM protein; for m1/2 value of unfolding / Native free energy (ΔG in absence of denaturant): room temperature; for Native free energy (ΔG in absence of denaturant): extrapolated to zero urea
Protocol: Stability measurements of the protein were performed by measuring protein unfolding in the presence of urea via intrinsic tryptophan fluorescence (Lakowicz, 1983) in a Shimadzu RF5301 fluorometer. The excitation and emission wavelengths were 295 nm and 340 nm respectively. Both excitation and emission monochrometer slits were set at 1.5 nm. Protein (20 μM) was mixed with increasing amounts of urea (in the concentration range of zero to 6.8 M), and the samples were incubated at room temperature for ten hours to ensure that unfolding equilibrium had been achieved. Relative fluorescence was converted into free energy values according to the relation (Pace et al., 1989): [formula]
where yf and yu are the relative fluorescence values for fully folded and fully unfolded DST respectively, yi is the relative fluorescence of the unfolding intermediates, T is the absolute temperature, and R is the gas constant. Linear regression and extrapolation of the relationship ΔG versus [urea] was employed to determine the free energy value in the absence of denaturant (ΔGH2O). Similarly, the fraction unfolded protein (Fu) was calculated from the fluorescence data according to the relation (Pace et al., 1989): [formula]

Stoichiometry ([1]; 25° C., 20 mM cacodylate pH 7.0, FIG. 8): 0.995 +/− 0.06 | Ka (association constant) ([1]; 25° C., FIG. 8): 640000 ± 5300 M⁻¹ | ΔH ([1]; 25° C., FIG. 8): -31.2 ± 2.30 kcal/mol | ΔS ([1]; 25° C., FIG. 8): −16.2 +/− 1.22 cal mol^−1 K^−1 | Binding affinity compared with the peptide having SEQ ID NO:21 (in words) ([1]; bovine pancreatic trypsin): slightly lower binding affinity | Kinetic rate constant ka (association) [2]: 8.2×10^4 | Kinetic rate constant kd (dissociation) [2]: 6.9×10^−2
Sequence: CPSQPTYPGDPYKLKY GPVEDLIRFYDNLQQWLNCVTAAC (CPSQPTYPGDPYKLKYGPVEDLIRFYDNLQQWLNCVTAAC; A peptide-based reagent that combines the SEQ ID NO18 interactive domain with the SEQ ID NO11 peptide backbone.) [SAP-2, SAP backbone with library program-selected YKLKY insert]
Stabilization of the native state relative to SAP [3]: 2.1 kcal/mol | Stabilization of the native state relative to SAP-1 [3]: 0.1 kcal/mol | m1/2 value of unfolding [3]: 4.05 M urea

Binding to trypsin by ITC (in words) [1]: no detectable binding | Binding to trypsin by ITC (in words), FIG. 6 titration ([1]; peptide 2 mM, trypsin 20 μM, 20 mM cacodylate pH 7.0, 20 mM NaCl, 30° C.): No binding is evident
Sequence: CPSQPTYPGDPGPVEDLIRFYDNLQQWLNCVTAAC [SAP]
m1/2 value of unfolding [3]: 2.5 M urea | Dimerization seen in the unfolding curve (in words) ([3]; FIG. 9): no dimerization phenomenon | Native free energy (ΔG in absence of denaturant) [3]: -3.1 kcal/mol

Stoichiometry ([1]; 293 K (20° C.), 20 mM cacodylate pH 7.0, 20 mM NaCl, FIG. 7): 0.975 +/− 0.02 | Ka (association constant) ([1]; 293 K, FIG. 7): 1.65e+06 ± 45000 M⁻¹ | ΔH ([1]; 293 K, FIG. 7): -26.1 ± 1.45 kcal/mol | ΔS ([1]; 293 K, FIG. 7): −11.6 +/− 2.2 cal mol^−1 K^−1 | Ka (association constant) ([1]; 303 K): 2.4e+06 ± 37000 M⁻¹ | ΔH ([1]; 303 K): -15.4 ± 2.05 kcal/mol | ΔS ([1]; 303 K): −21.1 +/− 1.8 cal mol^−1 K^−1 | Stoichiometry ([1]; higher temperature, 303 K): 0.99 +/− 0.03 | ΔCp (heat capacity of binding) ([1]; from calorimetric enthalpy at 293 K and 303 K): −0.51 kcal/mol K | Kinetic rate constant ka (association) [2]: 1.3×10^5 | Kinetic rate constant kd (dissociation) [2]: 1.7×10^−2
Sequence: CPSQPTYPGDPPYRIRFGPVEDLIRFYDNLQQWLN CVTAAC (CPSQPTYPGDPPYRIRFGPVEDLIRFYDNLQQWLNCVTAAC; A peptide-based reagent that combines the SEQ ID NO15 interactive domain with the SEQ ID NO11 peptide backbone.) [SAP-1]
Binding to trypsin by ITC (in words) [1]: remarkable binding specificity for trypsin | Stabilization of the native state relative to SAP [3]: 2.0 kcal/mol | m1/2 value of unfolding [3]: 4.0 M urea | Native free energy (ΔG in absence of denaturant) [3]: -5.1 kcal/mol

Source: patent US6822073B2, “Modular peptide-based reagent” (Kimberly-Clark Worldwide, Inc., priority 2001, dated 2004)
